The values that follow come from PMC8762332.

Test [1] concerns the target 40S ribosomal subunit in ribosome complexes (40S/PIC, monosomes, polysomes), marked by Rps2 (S. cerevisiae (endogenous in yeast)) (UniProt P25443). Description: co-sedimentation; yeast cultures crosslinked with 2% formaldehyde for 60 min on ice before lysis, 7.5–30% sucrose gradients (41,000 rpm, 5 h, SW-41), 0.63 ml fractions up to the 40S peak analysed by western blotting. For orientation: Immunoblotting shows a protein as a band on a membrane.

For test [2] the target is unchanged. Nature of the test: co-sedimentation; lysates of cycloheximide-treated yeast crosslinked with 1% formaldehyde (30 min on ice, quenched with 0.1 M glycine), 5–45% sucrose gradients, 10 fractions of 1 ml, western blotting of fractions (anti-His for eIF4B, Rps2, eIF4A, eIF4G).

Sequence of UniProt P25443 (P25443 whole entry, looked up, tested part not stated, one chain of several): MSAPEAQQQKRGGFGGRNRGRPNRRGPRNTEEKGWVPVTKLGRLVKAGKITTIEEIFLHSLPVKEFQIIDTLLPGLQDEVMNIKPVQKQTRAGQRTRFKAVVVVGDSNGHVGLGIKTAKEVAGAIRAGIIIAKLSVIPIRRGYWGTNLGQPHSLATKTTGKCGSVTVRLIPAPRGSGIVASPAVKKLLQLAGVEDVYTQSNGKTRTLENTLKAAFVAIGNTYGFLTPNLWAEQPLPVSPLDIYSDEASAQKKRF

For the molecule “yeast eIF4B lacking the N-terminal domain, C-terminal hexahistidine tag (domain or fragment)”, the percent reduction of eIF4B in Rps2-containing fractions against WT in test [1] worked out at 93%. The same molecule showed a percent of the protein in fractions that lack 40S subunits and ribosomes in test [2] of 80%.

B1: yeast eukaryotic initiation factor 4B, wild type, C-terminal hexahistidine tag (natural protein)
chain: MAPPKKTVKKMDLTSFLNDDTFGSSWAEEDVDLNKITIPIETANANTIPLSELAHAKNNSNNTRSGGFGGSFGGRSRLDPALGGGSSDRREEYPVPDAPPYRAVINNIPWDITPEGVQAWVEDGLVKPEAVEEVVLPKNLRDPTRLKGNAFVTLKERADLVAVLKFNGTKLNERTVYVSVAAPRRGGGADVDWSSARGSNFQGDGREDAPDLDWGAARGSNFRGPRREREEVDIDWTAARGSNFQGSSRPPRREREEVDIDWSAARGSNFQGSSRPPRREREEPDIDWSAARGSNFQSSSRPPRREREEPDIDWSAARGSNFQSSSRPPRREREKEEPALDWGAARGAQFGKPQQTKNTYKDRSLTNKKTTDEQPKIQKSVYDVLRTEDDDEDEEAEKQNGDAKENKVDAAVEKLQDKTAQLTVEDGDNWEVVGKK
As to B1, in test [2], the percent of the protein in Rps2/40S subunit-containing fractions was 55%.
